In publication PMC5615231:

Biological target: recombinant Aβ42 peptide (UniProt P05067)

Sequence of extracellular chaperone clusterin (P10909 23-227): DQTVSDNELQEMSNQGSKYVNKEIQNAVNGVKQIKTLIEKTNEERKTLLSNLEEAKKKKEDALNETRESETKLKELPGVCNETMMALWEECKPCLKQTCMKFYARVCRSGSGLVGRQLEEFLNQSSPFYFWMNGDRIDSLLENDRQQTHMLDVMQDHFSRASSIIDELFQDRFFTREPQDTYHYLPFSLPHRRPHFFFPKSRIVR
Sequence of extracellular chaperone clusterin (P10909 228-449): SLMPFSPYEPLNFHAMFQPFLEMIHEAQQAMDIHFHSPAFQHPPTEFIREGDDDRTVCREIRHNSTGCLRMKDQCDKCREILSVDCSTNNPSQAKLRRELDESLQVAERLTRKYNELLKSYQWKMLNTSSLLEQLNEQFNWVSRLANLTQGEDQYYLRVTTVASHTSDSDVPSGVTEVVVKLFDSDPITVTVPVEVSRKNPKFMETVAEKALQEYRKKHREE

concentration of clusterin required to reduce by half the Ca^2+ influx into lipid vesicles induced by Aβ42 oligomers (t2 aliquot; dilution series): 0.1 nM
Substance: extracellular chaperone clusterin (from UniProt P10909 23-227; P10909 228-449) (natural protein)
